In patent WO2013151666A2 one finds Kd data, which are given here for one substance.

For the test, the target named is Low density lipoprotein receptor (LDLR) expressed on HEK293 cells transfected with LDLR modified mRNA (mRNA SEQ ID NO: 21463) (human) (UniProt P01130). The test is described as follows: FACS; rising amounts of BODIPY-LDL on HEK293 cells transfected with LDLR mRNA, 1 h at 37 C. (Flow cytometry measures light scatter and fluorescence of single cells or particles in a stream.)
Low density lipoprotein receptor (LDLR) expressed on HEK293 cells transfected with LDLR modified mRNA (mRNA SEQ ID NO: 21463) (human), sequence (P01130 22-860): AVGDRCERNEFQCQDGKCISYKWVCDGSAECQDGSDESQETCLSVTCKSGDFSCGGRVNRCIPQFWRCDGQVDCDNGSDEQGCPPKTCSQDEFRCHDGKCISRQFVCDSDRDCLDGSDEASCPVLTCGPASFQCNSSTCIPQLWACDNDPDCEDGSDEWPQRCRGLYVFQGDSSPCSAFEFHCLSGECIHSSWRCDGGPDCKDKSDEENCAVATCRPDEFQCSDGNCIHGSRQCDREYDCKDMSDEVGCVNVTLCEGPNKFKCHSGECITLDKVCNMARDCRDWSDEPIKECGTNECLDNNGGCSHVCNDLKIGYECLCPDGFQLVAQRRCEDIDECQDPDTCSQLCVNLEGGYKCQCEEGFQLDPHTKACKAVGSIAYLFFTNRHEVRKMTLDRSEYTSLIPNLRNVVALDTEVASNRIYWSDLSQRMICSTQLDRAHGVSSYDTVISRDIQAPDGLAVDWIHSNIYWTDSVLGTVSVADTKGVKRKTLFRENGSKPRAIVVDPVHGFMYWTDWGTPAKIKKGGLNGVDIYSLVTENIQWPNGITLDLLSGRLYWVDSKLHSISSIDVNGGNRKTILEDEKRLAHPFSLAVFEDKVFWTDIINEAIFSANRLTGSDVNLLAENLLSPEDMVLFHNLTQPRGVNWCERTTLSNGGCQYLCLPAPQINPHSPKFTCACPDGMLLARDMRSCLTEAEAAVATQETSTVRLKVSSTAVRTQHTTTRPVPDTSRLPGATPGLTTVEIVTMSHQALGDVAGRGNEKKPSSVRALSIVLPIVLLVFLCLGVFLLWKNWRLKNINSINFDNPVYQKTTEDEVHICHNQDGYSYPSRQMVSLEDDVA

“BODIPY-labeled LDL (low density lipoprotein) (from UniProt P04114 28-4563) (ligand)” registered a Kd of 0.06 µg/mL.

As a reminder, the Kd is the constant that tells how readily two partners part at equilibrium.
